Results on three molecules are retold here after patent US20210380667A1 (NOVOZYMES A S, published 2021).

For assay [1], the target named is B. lentus protease variant having the amino acid sequence of SEQ ID NO: 2 with the substitutions S9E N43R N76D V205I Q206L Y209W S259D N261W L262E (Bacillus lentus), P29600. As to the kind of experiment: cell-based or functional assay.
Assay [2] addresses T1, B. lentus protease having SEQ ID NO: 2 (Savinase) (Bacillus lentus, UniProt P29600 1-269).
T1 sequence: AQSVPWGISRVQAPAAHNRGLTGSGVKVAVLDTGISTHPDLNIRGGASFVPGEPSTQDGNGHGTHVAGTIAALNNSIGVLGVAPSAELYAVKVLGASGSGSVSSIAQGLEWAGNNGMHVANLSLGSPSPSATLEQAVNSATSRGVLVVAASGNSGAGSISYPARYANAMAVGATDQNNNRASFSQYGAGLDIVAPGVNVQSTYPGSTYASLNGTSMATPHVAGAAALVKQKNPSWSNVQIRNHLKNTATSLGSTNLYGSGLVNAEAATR
The assay can be described thus: cell-based or functional assay.

Changes are numbered by the printed parent chain. Names may count otherwise.

B1: CI-2A variant (CI08) K21H+P25S+E26H+K30H+E33H (protein)
chain: HNLHTEWSHLVGHSVHEAKKVILQDKPEAQIIVLPVGTIVTMEYRIDRVRLFVDKLDNIAQVPRVG
For B1, the pH value at which the released protease activity peaks in assay [1] is 3.5 to 4 pH.

B2: CI-2A variant (CI10) K30H+E33H+K43H+P44A+P52A, P01053 19-84 (protein)
chain: B1 chain with H4K, S8P, H9E, K26H, P27A, P35A
On to B2, for which the pH value at which the released protease activity peaks in assay [1] is 3.5 to 4 pH.

B3: CI-2A wildtype having the amino acid sequence of the mature protein of SEQ ID NO:1 (barley chymotrypsin inhibitor 2a) (other)
chain: B1 chain with H4K, S8P, H9E, H13K, H16E
As to B3, the “pH value at which the released protease activity peaks” value was about 3.5 pH in assay [2] and 3 pH in assay [1].
